From US20040001839A1, “Multimers - isolated molecules comprising epitopes containing sulfated moieties, antibodies to such epitopes, and uses thereof” (priority 2000, published 2004)

Key:
Jurkat cells = test: FACS binding of Y1-cys monomer and dimer to Jurkat cells; parameters: species or system human
Excerpt: The present invention is directed to Y1 and Y17 multimers prepared by any known method in the art. A preferred method of forming multimers, and especially dimers, employs the use of cysteine residues to form disulfide bonds between two monomers. In this embodiment, dimers are formed by adding a cysteine on the carboxyl terminus of the scFvs (referred to as Y1-cys scFv or Y1 dimer) in order to facilitate dimer formation. After the DNA construct was made (See Example 2D and 6D) and used for transfection, Y1 dimers were expressed in a production vector and refolded in vitro. The protein was analyzed by SDS-PAGE, HPLC, and FACS. […] Thus, the process was repeated and this time, two-liter fermentation batches of the antibodies were run. After expressing Y1-cys in E. coli strain BL21, refolding was done in arginine. Following refolding, the protein was dialyzed and purified by Q-sepharose and gel filtration (sephadex 75). Two peaks were detected by SDS-PAGE (non-reduced) and by gel filtration. The peaks were collected separately and analyzed by FACS. Monomer and dimer binding to Jurkat cells was checked by FACS. […] Conditions for dimer refolding were determined, and material comprising >90% dimers (mg quantities) was produced after subsequent dialysis, chromatographic, and gel filtration steps. […]

KG-1 cells [1] = test: Binding competition experiments on KG-1 cells (monomer, dimer, Y1 IgG); parameters: species or system human; conditions: as analyzed by radioreceptor assay, ELISA or FACS
Excerpt: To compare the binding of the scFv monomer (also referred to as CONY1) with the Y1 dimer, binding competition experiments were done in vitro on KG-1 cells. In addition, these experiments also compared the binding of the full Y1 IgG to the scFv Y1 monomers. To perform this study, a Y1 IgG was labeled with biotin.

washed platelets = test: Ristocetin-induced agglutination of washed platelets (scFv); type: cell-based, human
Procedure: Aggregation is determined in PRP due to the presence of thrombotic agents, while agglutination is determined in washed platelets. The effect of Y1 (scFv) on agglutination of washed platelets was tested at various concentrations of Y1. Platelets were pre-incubated with Y1 scFv, Y17 scFv, Y16-scFv, or a control TM-1 scFv for 4 min at 37° C. before being exposed to ristocetin, an inducer of platelet agglutination and aggregation.
Platelet concentrate in acid-citrate-dextrose (ACD) was obtained from a blood bank, platelets were isolated, washed once in buffer containing ACD and saline in a ratio of 1:7. The platelets were centrifuged at 800 g for 10 min after each wash and were resuspended in Tyrodes solution (2 mM MgCl2, 137 mM NaCl, 2.68 mM KCl, 3 mM NaH2PO4, 0.1% glucose, 5 mM Hepes and 0.35% albumin, pH 7.35) and count the number of cells.
(§1) For platelet aggregation studies, platelet rich plasma (PRP) and washed platelets were stirred at 500 rpm at 37° C. in whole blood Lumiaggregometer (Chronolog, Havertown, Pa.). The difference in light transmission through the platelet suspension and suspending medium was taken as 100% aggregation. The effect of Y1 on platelet aggregation was evaluated by addition of different concentration of Y1 before the addition of agonist, and the effect was recorded for four minutes.
The effect of Y17-scFv on vWF-dependent agglutination of platelets was tested at different concentrations of Y17.

[2] = system: platelet-rich-plasma (PRP); test: Ristocetin-induced aggregation of platelet-rich plasma (scFv); type: cell-based, human; conditions: scFv 38 μg/ml, 100% = ristocetin treatment
Procedure: The effect of Y1 (scFv) on aggregation of platelet-rich-plasma (PRP) was tested at various concentrations of Y1. PRP was pre-incubated with Y1 scFv, Y17 scFv, or a control sTM-1cFv for 4 min at 37° C. before being exposed to ristocetin, an inducer of platelet agglutination and aggregation. A reversible inhibitory effect was observed when scFv was added to PRP prior to the addition of ristocetin, and it was dose dependent.
Blood was collected into a tube containing 3.8% sodium citrate. Platelet-rich plasma was prepared by centrifugation at 250×g for 10 minutes.
as §1

KG-1 cells [3] = test: FACS of Y1-biotag and Y1-biotag/streptavidin-PE tetramers on KG-1 cells; type: binding, human
Procedure: In a preferred method, tetramers are formed via a biotin/streptavidin association. A novel fermentation construct that is capable of being enzymatically labeled with biotin (referred to herein as Y1-biotag or Y1-B) was created. A sequence that is a substrate for the BirA enzyme was added at the Y1 C-terminus. The BirA enzyme adds a biotin to the lysine residue within the sequence. Y1-biotag was expressed in E. coli. The inclusion body material was isolated and refolded. The purity of the folded protein was >95%, and >100 mg were obtained from a 1-L culture (small-scale, non-optimized conditions). […] Nevertheless, this construct offered the advantage of specific biotinylation in which the binding site of the molecule remains intact. Further, each molecule is labeled by only one biotin—each molecule receives one biotin on the carboxyl end.
Limiting labeling to one biotin/molecule in a desired location enabled production of tetramers with streptavidin. The tetramers were formed by incubating Y1-B with steptavidin-PE.
Y1-biotag tetramers with streptavidin-PE appear to specifically bind to one of the Y1-reactive cell lines (KG-1). The differential of this reaction, from background binding, was very high, and offered high sensitivity to detect low amounts of receptor. […] Monocytes and granulocytes were positive to a small extent. […]

B1: Y1 dimer: disulfide dimer of Y1 scFv with a cysteine added on the carboxyl terminus (protein)
scFv 1: MEVQLVESGGGVVRPGGSLRLSCAASGFTFDDYGMSWVRQAPGKGLEWVSGINWNGGSTGYADSVKGRFTISRDNAKNSLYLQMNSLRAEDTAVYYCARMRAPVIWGQGTLVTVSRGGGGSGGGGSGGGGSSELTQDPAVSVALGQTVRITCQGDSLRSYYASWYQQKPGQAPVLVIYGKNNRPSGIPDRFSGSSSGNTASLTITGAQAEDEADYYCNSRDSSGNHVVFGGGTKLTVLGGGGCKAK
scFv 2: B1 scFv 1
amount needed relative to the monomeric antibody for the same level of staining (Jurkat cells): 1/100
binding relative to the Y1 scFv monomer (KG-1 cells [1]): at least 20 fold

B2: Y17 scFv: second scFv clone binding platelets and myelogenous leukemia cell lines; SEQ ID NO:203, CDR3 SEQ ID NO:20 (protein, listed as Homo sapiens)
scFv: MKYLLPTAAAGLLLLAAQPAMAEVQLVESGGGVVRPGGSLRLSCAASGFTFDDYGMSWVRQAPGKGLEWVSGINWNGGSTGYADSVKGRFTISRDNAKNSLYLQMNSLRAEDTAVYYCARLTHPYFWGQGTLVTVSRGGGGSGGGGSGGGGSSELTQDPAVSVALGQTVRITCQGDSLRSYYASWYQQKPGQAPVLVIYGKNNRPSGIPDRFSGSSSGNTASLTITGAQAEDEADYYCNSRDSSGNHVVFGGGTKLTVLGAAAEQKLISEEDLNGAA
inhibition of vWF-dependent platelet agglutination (washed platelets; final concentration of 10, 25 or 50 μg/ml, washed platelets, ristocetin): did not inhibit
% agglutination (washed platelets; scFv 25 μg/ml, 100% = ristocetin treatment): 85%
% inhibition (washed platelets; scFv 25 μg/ml, ristocetin-induced agglutination): 15%
% aggregation [2]: 100%

B3: Y1 tetramers: tetramers formed by incubating Y1-B with streptavidin-PE (protein)
scFv 1: MEVQLVESGGGVVRPGGSLRLSCAASGFTFDDYGMSWVRQAPGKGLEWVSGINWNGGSTGYADSVKGRFTISRDNAKNSLYLQMNSLRAEDTAVYYCARMRAPVIWGQGTLVTVSRGGGGSGGGGSGGGGSSELTQDPAVSVALGQTVRITCQGDSLRSYYASWYQQKPGQAPVLVIYGKNNRPSGIPDRFSGSSSGNTASLTITGAQAEDEADYYCNSRDSSGNHVVFGGGTKLTVLGGGGLNDIFEAQKIEWHE
scFv 2: B3 scFv 1
scFv 3: B3 scFv 1
scFv 4: B3 scFv 1
modifications: left off: another chain or arm of the molecule; large carriers; small tags and cut ends
notes: tetramers formed by incubating Y1-B with streptavidin-PE
reactivity in positive cell lines such as KG-1 (KG-1 cells [3]; FACS): at least 100 fold
increase of the sensitivity of the binding (KG-1 cells [3]; complexes with Streptavidin-PE, FACS on KG-1 cells): at least 100 fold
